Test results published in article PMC3539201 (Journal of cell science, 2008).

B1: GFP-KASH-3α (domain or fragment, mouse, UniProt Q4FZC9 917-975, looked up)
chain: CSLLQKACRVALPLQLLLLLFLLLLFLLPAGEEERSCALANNFARSFALMLRYNGPPPT
B2: GFP-KASH-1 (domain or fragment)
chain: not shown
B3: GFP-KASH-2 (domain or fragment)
chain: not shown

Biological target: T1, torsinA (endogenous, 293T cells) (human (endogenous in 293T), UniProt O14656 21-332)
T1 sequence (looked up): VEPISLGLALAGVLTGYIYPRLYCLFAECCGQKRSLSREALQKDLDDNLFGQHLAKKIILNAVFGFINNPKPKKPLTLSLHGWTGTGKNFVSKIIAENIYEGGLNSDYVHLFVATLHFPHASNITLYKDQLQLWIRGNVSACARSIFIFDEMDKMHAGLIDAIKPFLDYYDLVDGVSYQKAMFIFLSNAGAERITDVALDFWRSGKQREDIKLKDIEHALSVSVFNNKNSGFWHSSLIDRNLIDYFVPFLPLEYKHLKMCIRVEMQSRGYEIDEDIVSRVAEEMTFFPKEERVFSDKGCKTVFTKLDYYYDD
Assay: co-IP

Point of comparison: B2, “percentage immunoprecipitated from lysates by torsinA antibodies” value 21%. Against it:
- B1 — lower, 11%
- B3 — lower, 12%
